Read-outs that look alike come from different tables or passages of the source.

The target of data set [1] is T1, ZBP1 KH3-KH4 (ZBP1KH34) (Gallus gallus, UniProt O42254 404-561). The data set can be described thus: EMSA.
In data set [2] the target is T1, ZBP1 KH3-KH4 (ZBP1KH34). The data set can be described thus: EMSA. This is another data set of the same source. (A gel shift assay detects complexes by their altered migration in electrophoresis.)

T1 sequence (O42254 404-561): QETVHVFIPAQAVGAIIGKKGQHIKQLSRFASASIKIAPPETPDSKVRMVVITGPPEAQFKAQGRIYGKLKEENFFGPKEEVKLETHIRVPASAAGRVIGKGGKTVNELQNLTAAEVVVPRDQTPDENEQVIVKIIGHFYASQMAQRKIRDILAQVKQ

B1: A oligonucleotide: chicken beta-actin zipcode unmodified (ssRNA)
RNA: ACCGGACUGUUACCAACACCCACACCCC
B1: the binding result with ZBP1 KH3-KH4 (ZBP1KH34) [1] is given as “binds”.

B2: B oligonucleotide: zipcode m6A site 1202 (GGm6ACU) (ssRNA)
RNA: ACCGGACUGUUACCAACACCCACACCCC
modifications: m6A at position 6
In the case of B2, in the data set with ZBP1 KH3-KH4 (ZBP1KH34) [2], the binding result is reported as “binds”.

Values taken from publication PMC10187669.
